Laboratory results taken from patent EP4634231A1 (dated 2025).

Assays:
[1] = target: T1, MUC-16 (CA125) expressed on SW1990 and OVCAR3 cancer cells (human, UniProt Q8WXI7 1-14507); assay: flow cytometry on MUC16 expressing cancer cells
T1 construct: whole, on cells

[2] = target: T1, MUC-16 (CA125) expressed on SW1990 and …; assay: flow cytometry saturation binding (MFI against concentration) on MUC-16 expressing SW1990 and OVCAR3 cells

Binder	EC50 [1] [nM]	EC50 [2] [nM]	Kd [2] [nM]
89Zr-DFO-M16Ab, M16Ab conjugated with p-SCN-Bn-DFO and radiolabeled with 89Zr (antibody, V domains shown, p-SCN-Bn-DFO chelator loaded with 89Zr; sites not stated, also called 89Zr-DFO-M16Ab1; 89Zr-M16Ab1) VH: QVQLVESGGGVVQPGGSLRLSCAASGFTFSTYGMHWVRQAPGKGLEWVAVISYDGSNKYYADSVKGRFTISRDNTNNSLYLQMSGLRAEDSAVYYCAKDVYGDFAVDSWGQGTLVTVSS VL: not shown	10	–	–
M16Ab1, fully human anti-MUC16 monoclonal antibody, full-length IgG1 (antibody, V domains shown, also called MUC16 Ab1; MUC-16 Ab1) VH: QVQLVESGGGVVQPGGSLRLSCAASGFTFSTYGMHWVRQAPGKGLEWVAVISYDGSNKYYADSVKGRFTISRDNTNNSLYLQMSGLRAEDSAVYYCAKDVYGDFAVDSWGQGTLVTVSS VL: not shown	–	9.1	10.9
DFO-M16Ab1, M16Ab1 IgG1 conjugated with p-SCN-Bn-DFO (antibody, V domains shown, p-SCN-Bn-DFO (deferoxamine) conjugated, average of two DFO molecules per antibody; sites not stated, also called DFO-MUC16 Ab 1; DFO-MUC16 AB1) VH: QVQLVESGGGVVQPGGSLRLSCAASGFTFSTYGMHWVRQAPGKGLEWVAVISYDGSNKYYADSVKGRFTISRDNTNNSLYLQMSGLRAEDSAVYYCAKDVYGDFAVDSWGQGTLVTVSS VL: not shown	–	10.3	12.7
